Results published in patent publication US20210301005A1 (Genentech, published 2021).
Like-named read-outs stand apart in the source and are kept apart here.

Experiments:
[1] = molecular target: T1, human TGFβ2, mature receptor-binding domain (human, UniProt P09858 303-414 (pig entry), The mature TGFβ2 is a disulfide-linked homodimer of this 112-residue chain. The 4A11 epitope spans both monomers (p-1207).); assay: BIAcore T200
T1 construct: Peprotech; also called TGFb2
T1 sequence: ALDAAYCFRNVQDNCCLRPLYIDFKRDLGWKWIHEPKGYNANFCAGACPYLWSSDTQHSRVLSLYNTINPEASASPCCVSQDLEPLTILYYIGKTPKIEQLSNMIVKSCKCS
Procedure: (§1) For binding affinity determinations of all humanized 2A10 antibodies, Surface Plasmon Resonance (SPR) measurement with a BIAcore™-T200 instrument was used. Briefly, series S CM5 biosensor chip with protein A was first applied to capture each humanized 2A10 variant to achieve approximately 100 response units (RU) on each flow cell, following by injection of 3-fold serial dilutions of human TGFβ1, TGFβ2 or TGFβ3 (0.02 nM to 5 nM) in HBS-EP buffer (0.01M HEPES pH 7.4, 0.15M NaCl, 3 mM EDTA and 0.05% v/v surfactant P20) at 25° C. with a flow rate of 50 μl/min for kinetics measurement. Association rates (ko.) and dissociation rates (koff) were calculated using a simple one-to-one Langmuir binding model (BIAcore T200 evaluation software version 2.0) to determine the equilibrium dissociation constant (KD), which was calculated as the ratio koff/kₒₙ.

[2] = molecular target: T2, human TGFβ3, mature dimeric form (human, UniProt P10600 301-412); assay: BIAcore T200
T2 construct: Peprotech, expressed in E. coli; also called TGFb3
T2 sequence: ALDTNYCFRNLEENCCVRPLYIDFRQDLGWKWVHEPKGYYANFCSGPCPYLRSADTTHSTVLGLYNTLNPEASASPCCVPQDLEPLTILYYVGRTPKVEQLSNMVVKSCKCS
Procedure: as §1

[3] = molecular target: T1, human TGFβ2, mature receptor-binding …; assay: cell-based or functional assay
[4] = molecular target: T3, human TGFβ1, mature receptor-binding domain (human, UniProt P01137 279-390); assay: cell-based or functional assay
T3 sequence (P01137 279-390 limits assumed): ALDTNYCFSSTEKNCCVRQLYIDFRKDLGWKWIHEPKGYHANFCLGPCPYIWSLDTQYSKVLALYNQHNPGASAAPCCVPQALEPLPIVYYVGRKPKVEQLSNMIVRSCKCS

[5] = molecular target: T2, human TGFβ3, mature dimeric form; assay: cell-based or functional assay
[6] = molecular target: T3, human TGFβ1, mature receptor-binding …; assay: SPR; Table 4 screening SPR, affinity at 25 C; no blocking of TGFb1 (>500 nM at 37 C)
[7] = molecular target: T1, human TGFβ2, mature receptor-binding …; assay: SPR
[8] = molecular target: T2, human TGFβ3, mature dimeric form; assay: SPR
[9] = molecular target: T3, human TGFβ1, mature receptor-binding …; assay: BIAcore T200; humanization BIAcore study (Tables 9 and 11), bound only
[10] = molecular target: T1, human TGFβ2, mature receptor-binding …; assay: cell-based or functional assay; remark: listed apart in the source
[11] = molecular target: T3, human TGFβ1, mature receptor-binding …; assay: cell-based or functional assay; remark: listed apart in the source
[12] = molecular target: T2, human TGFβ3, mature dimeric form; assay: cell-based or functional assay; remark: listed apart in the source
[13] = molecular target: T1, human TGFβ2, mature receptor-binding …; assay: cell-based or functional assay; remark: listed apart in the source
[14] = molecular target: T3, human TGFβ1, mature receptor-binding …; assay: cell-based or functional assay; remark: listed apart in the source
[15] = molecular target: T2, human TGFβ3, mature dimeric form; assay: cell-based or functional assay; remark: listed apart in the source
[16] = molecular target: T2, human TGFβ3, mature dimeric form; assay: SPR; remark: listed apart in the source
[17] = molecular target: T2, human TGFβ3, mature dimeric form; assay: cell-based or functional assay; remark: listed apart in the source
[18] = molecular target: T1, human TGFβ2, mature receptor-binding …; assay: BIAcore T200; remark: listed apart in the source
Procedure: as §1

[19] = molecular target: T2, human TGFβ3, mature dimeric form; assay: BIAcore T200; remark: listed apart in the source
Procedure: as §1

[20] = molecular target: T1, human TGFβ2, mature receptor-binding …; assay: BIAcore T200; remark: listed apart in the source
Procedure: as §1

[21] = molecular target: T3, human TGFβ1, mature receptor-binding …; assay: BIAcore T200
Procedure: as §1

[22] = molecular target: T2, human TGFβ3, mature dimeric form; assay: BIAcore T200; remark: listed apart in the source
Procedure: as §1

[23] = molecular target: T1, human TGFβ2, mature receptor-binding …; assay: cell-based or functional assay; remark: listed apart in the source
[24] = molecular target: T3, human TGFβ1, mature receptor-binding …; assay: cell-based or functional assay; remark: listed apart in the source
[25] = molecular target: T2, human TGFβ3, mature dimeric form; assay: cell-based or functional assay; remark: listed apart in the source

B1: 2A10 (antibody, V domains shown)
VH: EVQLVESGGGLVQPKGSLKLSCAASGFDFNSYGMSWVRQAPGKGLDLVADIVSKTYNYTTYYSDSVKDRFTISRDDSQSMVYLQMDNLKTEDTALYYCTVAPGGSFDYWGQGVMVTVSS
VL: DIVLTQSPALAVSLGQRATISCRASQSVSISRFNLMHWYQHKPGQQPKLLIYRASNLASGIPARFSGSGSGTDFTLTINPVQADDLATYYCQHSRESPWTFGGGTKLEIK
notes: anti-TGFβ3; also called rat 2A10; r2A10
Kd [1]: 62.8 pM
Kd [2]: 1.2 pM
HEKBlue TGFβ blocking IC50 [3]: 70000 pM
HEKBlue TGFβ blocking IC50 [4]: > 200000 pM
HEKBlue TGFβ blocking IC50 [5]: 10 pM
Kd [6]: 1600 pM
Kd [7]: 46 pM
Kd [8]: < 2 pM
Kd [9]: > 5000 pM
HEKBlue TGFβ blocking IC50 [10]: 70000 pM
HEKBlue TGFβ blocking IC50 [11]: > 200000 pM
HEKBlue TGFβ blocking IC50 [12]: 10 pM
Blocking IC50 [13]: 193000 pM
Blocking IC50 [14]: > 500000 pM
Blocking IC50 [15]: 20 pM
Kd [16]: < 10 pM
cell-based IC50 [17]: < 250 pM
Kd [18]: 62.8 pM
Kd [19]: 1.2 pM

B2: h2A10.v2 (antibody, human IgG1, kappa, N297G)
heavy: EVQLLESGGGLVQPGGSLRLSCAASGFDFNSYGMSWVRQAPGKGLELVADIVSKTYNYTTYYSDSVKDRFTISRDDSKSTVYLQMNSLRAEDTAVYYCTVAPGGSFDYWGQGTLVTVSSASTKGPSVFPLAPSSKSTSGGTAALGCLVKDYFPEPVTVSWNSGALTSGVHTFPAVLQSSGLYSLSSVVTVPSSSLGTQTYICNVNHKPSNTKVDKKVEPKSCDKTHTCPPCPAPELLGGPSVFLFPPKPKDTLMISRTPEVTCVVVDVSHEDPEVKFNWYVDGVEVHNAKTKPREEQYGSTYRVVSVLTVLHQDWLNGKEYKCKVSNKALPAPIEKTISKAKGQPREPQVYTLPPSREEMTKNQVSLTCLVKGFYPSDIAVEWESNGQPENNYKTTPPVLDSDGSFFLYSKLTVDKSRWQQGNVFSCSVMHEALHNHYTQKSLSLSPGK
light: DIQLTQSPSSLSASVGDRVTITCRASQSVSISRFNLMHWYQHKPGKQPKLLIYRASNLASGIPSRFSGSGSGTDFTLTISSLQPEDFATYYCQHSRESPWTFGGGTKVEIKRTVAAPSVFIFPPSDEQLKSGTASVVCLLNNFYPREAKVQWKVDNALQSGNSQESVTEQDSKDSTYSLSSTLTLSKADYEKHKVYACEVTHQGLSSPVTKSFNRGEC
notes: also called humanized 2A10 version 2
Kd [1]: 314 pM
Kd [2]: 1.3 pM
Kd [20]: 314 pM
Kd [21]: > 5000 pM
Kd [22]: 1.3 pM
HEKBlue TGFβ blocking IC50 [10]: > 200000 pM
HEKBlue TGFβ blocking IC50 [11]: > 200000 pM
HEKBlue TGFβ blocking IC50 [12]: 10 pM
HEKBlue TGFβ blocking IC50 [23]: > 200000 pM
HEKBlue TGFβ blocking IC50 [24]: > 200000 pM
HEKBlue TGFβ blocking IC50 [25]: 10 pM
